One protein from PMC12618258, “The human ribosome modulates multidomain protein biogenesis by delaying cotranslational domain docking” (Nature Structural & Molecular Biology, 2025) can be followed below.

This data set concerns the molecule itself. The data set can be described thus: SEC-MALS; 100 μl of Ns at 0.1 or 0.2 mg/ml (~5 or 10 µM) on Superdex 200 10/30 increase GL; 20 mM HEPES pH 7.5, 100 mM KCl, 5 mM magnesium acetate, 200 mM arginine-HCl, 1 mM DTT, 2 mM sodium azide. A general note: Size exclusion chromatography separates by hydrodynamic size, large species first.

The stoichiometry N is a count of units in the complex or per binding partner.

B1: isolated Ns (isoNs, residues 1–190) of firefly luciferase (domain or fragment, UniProt P08659 1-190, looked up)
chain: MEDAKNIKKGPAPFYPLEDGTAGEQLHKAMKRYALVPGTIAFTDAHIEVNITYAEYFEMSVRLAEAMKRYGLNTNHRIVVCSENSLQFFMPVLGALFIGVAVAPANDIYNERELLNSMNISQPTVVFVSKKGLQKILNVQKKLPIIQKIIIMDSKTDYQGFQSMYTFVTSHLPPGFNEYDFVPESFDRDK
notes: firefly luciferase (FLuc, 550 residues), UniProt Q27758_PHOPY, residues 1-190 (Ns subdomain), off the ribosome; The truncations carried an N-terminal His-SUMO tag; The printed monomer mass of ~21.5 kDa fits the cleaved fragment; source: E. coli BL21, purified (HisTrap, Ulp1 cleavage, reverse IMAC, Superdex gel filtration); not shown: His, N-terminal, cleaved; SUMO, N-terminal, cleaved
Turning to B1, the “stoichiometry N” value was found to be 2.
